# Measured values: US20120277120
# Experiments:
# Experiment in all cases: cell_activity
# [1] = tested on: FS-specific TALEN (synthetic); settings: yeast; 3 clones single, 1 double integration; half-sites not stated; scale: clone of 48 with all three ADS cassettes integrated
# [2] = tested on: ZFN.gfp (CompoZr zinc finger nuclease heterodimer ZFN.gfp.1/ZFN.gfp.2) (synthetic); settings: yeast, three integrated target copies; 0 of 96 with empty vector; monomer to half-site assignment not stated; scale: of 96 colonies with all three loci replaced
# [3] = tested on: SFC1-specific ZFN (synthetic); settings: yeast, pCUT015 alone; 76% with dual nuclease plasmid pCUT032
# [4] = tested on: YJR030c-specific ZFN (synthetic); settings: yeast, pCUT016 alone; 63% with dual nuclease plasmid pCUT032
substance,measurement,setting,value
TAGTGGAGGAATTAAAAGAGGAAGTTAAGAAGGAATTGATAACTATCAA (double strand) [FS TALEN target site],activity,[1],1
ACAACTACAACAGCCACAACGTCTATATCATGGCCGACAAGCA (double strand) [ZFN.gfp target in emgfp-delta],activity,[2],23
SFC1 ORF target,activity (% GFP-positive),[3],50
YJR030c ORF target,activity (% ADE2-positive),[4],5
